US20130004490A1 (UNITED STATES OF AMERICA AS REPRESENTED BY THE SECRETARY …, published 2013)

Biological target: T1, mouse ICAM-1 expressed on activated mouse endothelial cells (mouse, UniProt P13597 28-537)
T1 construct: whole, on cells
Test: FITC-labeled γ3 carriers on activated endothelial cells, fluorescence microscopy, 1 h 37 C
Protocol: Binding of FITC-labeled γ3 carriers to activated HUVEC cells (bars) vs ICAM-1-negative 293 cells (dotted line) was quantified by fluorescence microscopy after 1 h incubation at 37° C., in the absence or presence of excess γ3, anti-ICAM, or γ3 scramble peptide. The γ3 carriers bound to native ICAM-1 expressed by both activated human and mouse endothelial cells, but not control 293 cells which are known to be voided of ICAM-1 expression (FIG. 5C).

T1 sequence (P13597 28-537): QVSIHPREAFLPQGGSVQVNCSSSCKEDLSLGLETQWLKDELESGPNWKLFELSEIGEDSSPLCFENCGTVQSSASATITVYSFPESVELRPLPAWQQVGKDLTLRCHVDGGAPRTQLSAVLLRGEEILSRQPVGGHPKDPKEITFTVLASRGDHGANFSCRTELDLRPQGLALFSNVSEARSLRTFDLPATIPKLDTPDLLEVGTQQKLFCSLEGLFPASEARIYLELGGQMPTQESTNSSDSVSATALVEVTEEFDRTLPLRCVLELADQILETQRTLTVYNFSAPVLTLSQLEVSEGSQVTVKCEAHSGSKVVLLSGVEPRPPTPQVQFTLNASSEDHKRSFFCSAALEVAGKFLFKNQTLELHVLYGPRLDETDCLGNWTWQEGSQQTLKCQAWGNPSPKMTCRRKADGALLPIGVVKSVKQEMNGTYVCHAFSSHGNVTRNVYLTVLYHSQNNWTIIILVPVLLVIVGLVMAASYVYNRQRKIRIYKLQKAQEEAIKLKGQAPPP

B1: ICAM-1 affinity peptide γ3, a 17-mer polypeptide derived from fibrinogen (peptide)
peptide: NNQKIVNLKEKVAQLEA
notes: also called γ3 peptide; γ3 carriers
  binding result: binds
